What is called IC50 is the concentration needed to halve the response being measured. Higher therefore signals lower potency. In general, Kd refers to the equilibrium constant for the complex coming apart. As a reminder, the koff is the rate constant with which the complex falls apart. As a reminder, the kon is the rate constant with which the complex forms.

These results are taken from patent US20230203146A1 (Boehringer Ingelheim, published 2023).

Experiment [1] concerns the target T1, FLAG-tagged recombinant human Ang1 (Alexis Biochemicals) (human, UniProt Q15389 20-498, limits assumed).
T1 construct: Bought reagent; also called hAng1; FLAG-hAng1
T1 sequence (looked up): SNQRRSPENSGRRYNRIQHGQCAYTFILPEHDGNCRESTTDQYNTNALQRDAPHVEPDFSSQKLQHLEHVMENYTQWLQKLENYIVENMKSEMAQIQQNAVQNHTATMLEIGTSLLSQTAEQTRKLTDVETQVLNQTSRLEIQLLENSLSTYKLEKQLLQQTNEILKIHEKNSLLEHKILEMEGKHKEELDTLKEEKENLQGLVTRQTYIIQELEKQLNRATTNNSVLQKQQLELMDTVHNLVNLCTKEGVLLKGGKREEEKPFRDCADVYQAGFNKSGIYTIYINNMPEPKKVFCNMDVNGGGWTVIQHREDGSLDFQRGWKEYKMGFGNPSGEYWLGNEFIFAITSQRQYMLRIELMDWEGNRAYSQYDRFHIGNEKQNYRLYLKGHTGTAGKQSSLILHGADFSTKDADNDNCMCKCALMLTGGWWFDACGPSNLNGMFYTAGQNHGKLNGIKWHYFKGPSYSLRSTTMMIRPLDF
Nature of the experiment: ratio of IC50 in hAng1/hTie2 ELISA to IC50 in hAng2/hTie2 ELISA. On the procedure:
In brief, 2 μg/mL of Tie2/Fc chimera (R&D Systems, Minneapolis, Minn., USA) is coated in a 96-well MaxiSorp plate (Nunc, Wiesbaden, Germany).
In brief, 2 μg/mL of recombinant human Tie2-Fc (R&D Systems, Minneapolis, Minn., USA) is coated overnight at 4° C. in a 96-well MaxiSorp plate (Nunc, Wiesbaden, Germany). Coated wells are blocked with a 1% casein solution.
Background: An ELISA detects its analyte on a solid surface through an enzyme-linked reagent.

Experiment [2] addresses T2, N-terminally FLAG-tagged mouse Ang2 (HEK293T conditioned medium) (mouse, UniProt O35608 19-496).
T2 construct: may be a nucleotide entry; also called mAng2; FLAG-mAng2
T2 sequence: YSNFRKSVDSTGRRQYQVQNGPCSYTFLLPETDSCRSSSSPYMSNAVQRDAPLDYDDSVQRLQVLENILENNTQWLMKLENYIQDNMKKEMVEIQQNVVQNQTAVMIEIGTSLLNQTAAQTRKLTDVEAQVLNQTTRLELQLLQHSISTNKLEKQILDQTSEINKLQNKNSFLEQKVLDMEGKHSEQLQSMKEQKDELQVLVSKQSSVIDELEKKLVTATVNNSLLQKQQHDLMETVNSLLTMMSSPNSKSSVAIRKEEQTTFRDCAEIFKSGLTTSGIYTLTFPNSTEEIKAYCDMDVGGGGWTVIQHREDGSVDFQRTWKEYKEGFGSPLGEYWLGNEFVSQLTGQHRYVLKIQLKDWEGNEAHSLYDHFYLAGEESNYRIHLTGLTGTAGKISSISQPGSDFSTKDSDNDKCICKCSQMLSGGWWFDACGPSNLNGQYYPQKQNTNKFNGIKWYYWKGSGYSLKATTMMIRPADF
Nature of the experiment: competition ELISA, FLAG-mAng2 on coated mTie2-Fc. On the procedure: (§1) In brief, 2 μg/mL of recombinant mouse Tie2-Fc or cyno Tie2-Fc is coated overnight at 4° C. in a 96-well MaxiSorp plate (Nunc, Wiesbaden, Germany). Coated wells are blocked with a 1% casein solution.

The target in experiment [3] is T3, N-terminally FLAG-tagged cynomolgus Ang2 (HEK293T conditioned medium) (cynomolgus, UniProt O15123 19-496 (human entry), limits assumed).
T3 construct: may be a nucleotide entry; also called cAng2; FLAG-cAng2
T3 chain: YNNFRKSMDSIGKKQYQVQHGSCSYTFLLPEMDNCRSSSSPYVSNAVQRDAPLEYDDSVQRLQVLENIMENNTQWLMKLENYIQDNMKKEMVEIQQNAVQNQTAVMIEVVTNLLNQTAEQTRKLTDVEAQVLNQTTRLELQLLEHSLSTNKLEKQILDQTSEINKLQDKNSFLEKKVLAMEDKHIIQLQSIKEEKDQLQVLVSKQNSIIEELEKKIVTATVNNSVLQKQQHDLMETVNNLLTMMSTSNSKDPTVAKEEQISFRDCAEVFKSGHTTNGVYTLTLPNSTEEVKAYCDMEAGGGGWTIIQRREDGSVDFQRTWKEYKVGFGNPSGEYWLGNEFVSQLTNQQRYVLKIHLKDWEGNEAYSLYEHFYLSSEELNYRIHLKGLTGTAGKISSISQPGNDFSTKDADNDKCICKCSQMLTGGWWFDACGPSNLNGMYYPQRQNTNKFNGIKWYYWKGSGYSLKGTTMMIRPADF
The experiment can be described thus: competition ELISA, FLAG-cAng2 on coated cTie2-Fc. The procedure: as §1

For experiment [4], the target named is T2, N-terminally FLAG-tagged mouse Ang2 …. Nature of the experiment: competition ELISA, FLAG-mAng2 on coated mTie2-Fc. On the procedure:
as §1
The source holds these as a separate data set.

The target of experiment [5] is T4, recombinant mouse Ang2-FLD (mouse, UniProt O35608 275-496, limits assumed).
T4 construct: domain: FLD
T4 sequence (looked up): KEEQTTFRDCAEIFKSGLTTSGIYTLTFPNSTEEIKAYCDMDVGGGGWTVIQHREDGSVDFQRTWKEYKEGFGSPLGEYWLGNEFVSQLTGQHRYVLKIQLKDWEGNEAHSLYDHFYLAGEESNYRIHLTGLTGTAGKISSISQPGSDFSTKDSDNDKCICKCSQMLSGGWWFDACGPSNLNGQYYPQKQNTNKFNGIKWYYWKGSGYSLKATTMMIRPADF
Nature of the experiment: SPR (Biacore T100), binder on CM5 chip, Ang2-FLD as analyte. An outline of the steps:
(§2)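 Binders were immobilized by amine coupling onto a CM5 sensor chip, and Ang2-FLD from each species was passed over as analyte at 45 μL/min, with 2 min association and 20 min dissociation. Surfaces were regenerated between injections using a 10 sec 25 mM NaOH pulse and 60 sec stabilization. Rate constants came from a 1:1 Langmuir fit, and KD was derived from them.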
A general note: In SPR one partner is held on a chip, and binding of the other changes the refractive index at the surface.

In experiment [6] the target is T5, recombinant cynomolgus Ang2-FLD (cynomolgus).
T5 construct: domain: FLD; also called cyno Ang2-FLD
Described as above. In short, it runs like this: as §2

In experiment [7] the target is T6, recombinant human Ang2-FLD (human, UniProt O15123 275-496, limits assumed).
T6 construct: domain: FLD; not used
T6 sequence (looked up): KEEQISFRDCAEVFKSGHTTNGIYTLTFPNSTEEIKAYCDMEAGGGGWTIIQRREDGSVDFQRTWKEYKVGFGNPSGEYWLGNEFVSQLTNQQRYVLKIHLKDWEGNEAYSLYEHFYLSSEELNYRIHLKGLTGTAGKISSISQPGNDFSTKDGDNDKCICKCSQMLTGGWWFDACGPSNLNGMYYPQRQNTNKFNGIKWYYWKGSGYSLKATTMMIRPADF
Described as above. In short, it runs like this: as §2

Read-outs that look alike come from different tables or passages of the source.

B1: VHH 7G08 (VHH)
VHH: EVQLVESGGGLVQPGGSLRLSCAASGFALDYYAIGWFRQVPGKEREGVSCISSSDGITYYVDSVKGRFTISRDNAKNTVYLQMNSLKPEDTAVYYCATDSGGYIDYDCMGLGYDYWGQGTQVTVSS
notes: also called 007G08; not shown: C-terminal c-myc tag and His6 tag
Take B1: the hAng1/hAng2 ratio in experiment [1] was above 2.33e+06. For the same molecule, the IC50 in experiment [2] came to 0.09 nM; in experiment [3], 0.14 nM; in experiment [4], 0.07 nM. The Kd in experiment [5] came out at 0.18 nM; in experiment [6] it was 0.072 nM; in experiment [7] it was 0.097 nM. Moreover, the koff in experiment [5] stood at 0.00014 s⁻¹; in experiment [6] it was 0.00011 s⁻¹; in experiment [7], 0.0001 s⁻¹. Further, the results for the kon in experiment [5], in experiment [6] and in experiment [7] were 810000 M⁻¹ s⁻¹, 1.5e+06 M⁻¹ s⁻¹ and 1e+06 M⁻¹ s⁻¹, respectively.
